The series is described as follows: yeast display, Sf9 membrane polyspecificity reagent, FACS + sequencing; frameworks hold sequencing errors. The method, boiled down:
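Polyreactivity labels are assigned by the sorting gate from which each nanobody was recovered. The gates were low and high (top ~1%), set on anti-HA fluorescence for expression and streptavidin fluorescence for reagent binding. Before sorting, galactose-induced (36–48 hours) yeast display cells were stained for 1 hour at 4 °C with 10% biotinylated, detergent-solubilized Sf9 membrane reagent.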
“QVQLVESGGGLVQAGGSLRLTCAASGSIFYPYSMGRYRPAPGKERELVAAISSSGGSTYYADSVKGRFTISRDNAKNTVYLQMNSLKPEDTADYNCAARGKKHAYDYWGQGTQVTVSS”: the “polyreactivity (PSR sort gate)” value was “low polyreactivity”.
As to “QVQLVESAVGLVQAGGRLRLSCAASGRIFVFNAMGWYMQAPGKERELVAAITASSTRTYYADSVKGRFTISRDNAKNTVYLQMNSLNPEDPAVYYCARDIRQYILYGRVDYWGQGTQVTVSS”, the “polyreactivity (PSR sort gate)” value is given as “low polyreactivity”.
“QVQLVESGVGLVQAGGSLRLSCADSGFTFFHYARGWYIQAPGKERELVAAIDYSAGSTYYADSVKGRFTISRDNAKNTVYLQMNSLKPEDTAVYYCAADARTSRGRRYYYWGQGTQVTVSS”: the “polyreactivity (PSR sort gate)” value was “low polyreactivity”.
With “HVQLVESGGGLVQAGGSLRVSCAASGRTFWSYTMGWYRQAPGKERELVASITYRGGSTYYADSVKGRFTISRDNAKNTVYLQMNSQKPEDTAVYYCNARYKRYSYDYWGQGTQVTVTS”, the “polyreactivity (PSR sort gate)” value is recorded as “high polyreactivity”.
Consider “QVQLVESGGRLVQAGGSLRLSCASSGRTFYPNAMGWYRHAPGKESELVAGIRSSGDSTYYADSVKGRFTISRDNAKNTVYLQMNSLKPEDTAVYYCNRDLTPSYDYWGQCTQVTVSS”, for which the “polyreactivity (PSR sort gate)” value is given as “low polyreactivity”.
For “QVQLVESGGGLVQAGGSLRLSCAASGFIFRQNAMGWYRQAPGKERELVAAITSSGGRTYYADSVKGRFTISRDNAKNTVYLQMNSLKPEDTAVYYCARRDYWGQGTQVTVSS”, the “polyreactivity (PSR sort gate)” value is “high polyreactivity”.
The result for “QDQLVESCGGLVPAGGSLRLSCPASGPIFTYYTMGSYRQAPGKERELVAAITVRGGRTYYADSVKGRFTISRDNEKNTVYLQMNSLKPEDTAVYYCAARGLVRSYDYWGQGTQVSVSS” reads “high polyreactivity”; that for “QVQLVESGGGLVQAGGSLRLSCAASGFTFDIYAMGWYRQAPGKERELVATISRSGGTTYYADSVKGRFTISRDNAKNTVYLQMNSLKPEDTAVYYCAAGAYSYRYRYRMDYWGQGTQVTVSS”, “high polyreactivity”.
Take “QVQLVESGGGLVQAGGSRRLSFAASGFTFKYYAMGWYRQAPGKERELVDAISRRGGSTSYADSVKGRFTISRDNAKNTVYLKMNSLKPEDTSVYYLAADSSFERSSDYWGQGTQVTVSS”: the “polyreactivity (PSR sort gate)” value was “high polyreactivity”.
Next, “QVQLVESGGGLVQAGGSLRLSCAASGRIFWSYAMGWYRQAPGKEREFVAVITWSGGSTYYADSVKGRFTISRDNAKNTVYLQMNSLKPEDTAVYYCADGQWWYQVRFDYWGQGTQVTVSS”: “low polyreactivity”; “QVQLVESGGGLVQAGGSLRLSCAASGITYRYAMGCYRQAPGKERELVAAITSSGASTYYADSVKGRFTISRDNAKNTVYLQMNSLKPEDTAVYYCATPLRKVYGGYEYWGQGTQVTVSS”: “low polyreactivity”.
On to “QDQHVESGGGLVQARGSLRLSCAASGRIFANKAMGRYRQAPGKERELVAAISRSGVSTYYADSVKGRFTISRDNAKNTVYLQMNSLKPEDSAVYYCAARWRSGFTSGDDWGQGTQVTVSA”, for which the “polyreactivity (PSR sort gate)” value is given as “low polyreactivity”.
As for “QDQLVESGGGLVQAGGSLRLSCAASGRILRQYAMGWYRQAPGKERELVAAITSGDSTYYADSVKGRFTISRDNAKNTVYLQMNSLKTEDTAVYYCAAYSWLYEGYEYWGQGTQVTVSS”, the “polyreactivity (PSR sort gate)” value was “high polyreactivity”.
Next, “QVQLEESGGGLVQAGGSLRLSCAASGFTFSTNSMGWYRPAPGKERELVAAISRGGSTNYADSVKGRFTISRDNAKNTVYLQMNSLKPEDTAVYYCNAYQSPDEEEYYWGQGTQVTVSS”: “low polyreactivity”; “QVQLVESGGGLVQAGGSLRLSCAASGFIFTQYTMGWYRQAPGKERELVAAISFSDSSTYYADSVKGRFTISRDNAKNTVYLEMNSLKPEDTAVYFCAADYSVTLRIGGYYWFYAFDYWGQGTQVTVSS”: “low polyreactivity”; “QVQLVESGGGLVQAGGSLRLSCASSGSTFYRYAMGWYRQAPGKERELVARINTGGSTSYAYSVKGRFTISRDNAKNTVYLQKNSLKPVDTAVYYCAASSRYAVFGRYYYWGQGTQVTVSS”: “high polyreactivity”.
Consider “QVQLGESVVCLDQAGVSLPLSCAASGFTFKYYTMRWFRQAPGKERELVAAISRRGGSTYYADSVKGRFTISRDNAKNTVYLQMKSLKPEDTAVYYCAADYRYVSTPYGYDYWGQGTQVTVSS”, for which the “polyreactivity (PSR sort gate)” value is reported as “high polyreactivity”.
Take “QVQLVESGGGLVQAGGSLRLSCAASGNIFSSNAMGWYRQAPGKERELDAAITRSGGSTYYADSVKGRFTISRDNAKNTVYLQMNSLKPEDTAVYYCAARHYPRNSWGYDYWGQGTQVTVSS”: the “polyreactivity (PSR sort gate)” value is given as “high polyreactivity”.
For the sequence “QVQLVESGGGLVQAGGSLRLSCAASGYTFDWYTMGWYRQAPGKERELVAAISASGVRTYYADSVKGRFTISRDNAKNTVYLQMNSLKPEDTAVYYCNRVYSTSRITQYEFDYWGQGTQVTVSS”, the “polyreactivity (PSR sort gate)” value is given as “low polyreactivity”.
Turning to “QVQLVESGGGLVQAGGSLRLSCAASGGILNRYAMGWYRQAPGKERELVAAIRWSGGSTYYADSVKGRFTISRDNAKNTVYLQMNSLKPEDTAVYYCAADVYYYHVLDFDYWGQGTLVTVSS”, the “polyreactivity (PSR sort gate)” value is reported as “low polyreactivity”.
“QVQLGESGGGLVQAGGSLRLTCAASGGTFKGYAMGWYRQAPGKERELVAAISWSGVRTYYADSVKGRFTISRDNAKNTVYLQMNSLKPEDTAVYYCAASWLLRMGYWGQGTQVTVSS”: the “polyreactivity (PSR sort gate)” value is “high polyreactivity”.
Next, “QVQLVESGGGLVQAGGSLRLSCAASGYIFYQYAMGWDRQAPGKERELVAGINWRGGSTYADSVKGRFTISRDNAKITVYLQMNSLKPEDTEVYYCNANQYRQDVFRRPSYYAYYYWGQGTQVTVSS”: “high polyreactivity”; “QVQLVESGGGLVQAGGSLRLICAASGSTFGTYAMGWYRQAPGKERELVAAISWSGGSTYYADSVKGRFTISRDNAKNTVYLQMNSLQPEDTAVYWGQGTQVTVSS”: “low polyreactivity”.
The result for “QVQLVESGGCLVQAGGSLRLSCAASGSSFTSNSMGWSRHAPGKERELVAAISSCGGSTYYADSVKGRFTISRDNATQTVYIQMNSLKPEDTAVYYCAADVHWPYRYDYWGQGTQVTVSS” reads “low polyreactivity”; that for “QVQLVESGGGLVQAGGSLRLSCAASGRIFAVYAMGWYRQAPGKEREFVAAISYSGGITYYADSVKGRFTISRDNAKNTVYLQMNSLKPEDTAVYYCNAYYYFWGQGTQVTVSS”, “low polyreactivity”.
Regarding “QVQLVESGGGLVQAGGSLRLICAASGFTFYRYAMGWYRQAPGKERELVAAITRSGGSTYYADSVKGRFTISRDNAKNTVYLQMNSLKPEDTAVYYCARTYWITNSKFRDYLGAYGGDYWGQGTQVTVSS”, the “polyreactivity (PSR sort gate)” value is recorded as “high polyreactivity”.
As for “QVQLVESGAGLVQARGSLRLSCAASGSIFLSYVMGWYRQAPGKERELVAAISKRGGRTYYADSVKGRFTISRDNAKNTVYLQMNSLKPEDTAVYYCNAVTQRESEEGDYWGQGTQVTVSS”, the “polyreactivity (PSR sort gate)” value was “high polyreactivity”.
Next, “QVQLVESGGGLVQAGGSLRLSCAASGSTFYPYPMGWYRQAPGKERELVATISSSGGTTSYADSVKGRFTISRDNAKNTVYLQMNSLKPEDTAVYYGAARGYGSLHHVLGHHDSWGQGTQVTVSS”: “low polyreactivity”.
The result for “QVQLVESGGGLVQAGGSLRLSCAASGSTFYYYAMGWYRQAPGKERELVAAITYSGGGTYYADSVKGRFTISRDNAKNTFYLQMNSLKPEDTAVYYCAKTIAVNTWYYYWGQGTQVTVSS” reads “low polyreactivity”; that for “QVQLVESGGGLVQAGGSLRLSSAASGSTFTSYAMGWYRQAPGNEWELVAAINSGGGTNYADSVKGRFTISRDNAKNTVYLQMNSLKPEDTAVYYCAKSRYDYTKTEGGYWGQGTQGTVSS”, “low polyreactivity”.
Next, “QVQLVESGGGLVQAGGSLRLSCAASGRIFAYNAMGWSRQAPGKERELVAAITWSGGTTYYADSVKGRFTISRDNAKNTVYLQMNSLKPEDTAVYYCAASRRYGGYRFDYWGQGTQVTVSS”: “high polyreactivity”; “QVQLQESGGGLVQAGGSLRLSCAASGSISPYYDMGWYRQAPGKEREFVAGISGGAITYYADSVKGRFTISRDNAKNTVYLQMNSLKPEDTAVYYFAADTGVYQYHSYWGQGTQVTVSS”: “low polyreactivity”.
As to “QVQLVESGGGLVQAGGSLRLSCAASGSTINIYAMGWYRQAPGKERELVAAISGRGGSTYYADSVKGRFTISRDNAKNTVYLQMNSLKPEDTAVYYSAASGYKVGSYRARMYYWGQGTQVTVSS”, the “polyreactivity (PSR sort gate)” value is given as “high polyreactivity”.
Turning to “QVQLEESGGGLVQAGGSLRLSCAASGSISSFNTMGWYRQAPGKERELVAAITRDGSTYYADSVKGRFTISRDNAKNTVYLQMNSLKPEDTAVYYCAARGWYATWLYYYWGQGTQVTVSS”, the “polyreactivity (PSR sort gate)” value is on record as “high polyreactivity”.
Regarding “QVQLVESGGGLVQAGGSLRLSCAASGRIFVKYTMGWYRQAPGKERELVAAIDFDTDSTYYADSVKGRFTISRDNAMNTVYLQMNSLKPEDTAVYYCAADQYYYWYTHQSIGYDYWGQGTQVTVSS”, the “polyreactivity (PSR sort gate)” value is given as “low polyreactivity”.
For “QVQLVESGGGLVQAGGSLRLSCAASGSIFGVNAMGWYRQAPGKERELVASISLSDDRTYYADSVKGRFTISRDNAKNTVYLQMNSLKPEDTAVYYCARRILWYWDVYPSLAEYDYWGQGTQVTVSS”, the “polyreactivity (PSR sort gate)” value is given as “low polyreactivity”.
As for “QVQLVESGGGLVQAGGSLRLSCAASGSIFSANAMGWYRQAPGKERELVAAISDGGAATYYADSVKGRFTISRDNAKHTVYLQMNSLKPEDTAVYYCIADDAFWTVVDGNWRYEYDYWGQGTQVTVSS”, the “polyreactivity (PSR sort gate)” value is “low polyreactivity”.
With “QVQLVESGGGLVQAGGSLRLSCAASGSIFYPNAMGWYRQAPGKERELVAAITTGGSTNYADSVKGRFTISRDNAKNTVYLQMNSLKPEDTAVYYCNARHRYHSYTQPRWKYVYWGQGTQVTVSS”, the “polyreactivity (PSR sort gate)” value is “low polyreactivity”.
As to “QVQLVESGGGLVQARGSLRLSCAASGSIFYGNAMGWYRQAHGKERELVAAISQSGGSTYYADSVKGRFTISRDNAKNTVYLQMNSLKPEDTAVYYCAAYTPYATWRYDYWGQGTQVTVSS”, the “polyreactivity (PSR sort gate)” value was “low polyreactivity”.
The result for “QVQLVESGGGLVQAGGSLRLSCAASGVIFYVYAMGWYRQAPGKERELVAAISADGGITYYADSVKGRFTISRDNAKNTVYLQMNSLKPEDTAVYYCAADYYGSVQGGIQYGYYYWGQGTQVTVSS” reads “low polyreactivity”; that for “QVQLVESGGGLVQAGGSLRLSCAASGRTFFRNAMGWDRQEPGSERELVAGISRSGGSTYYADSVKGRFTISRDNAKNTGYLQMNSLKPEDTAVYYCAAALYPYPGYEYWGQGTQVTVSS”, “high polyreactivity”.

(Values after the nanobody polyreactivity screen of Harvey et al. (2022).)
